Target: Archaeoglobus fulgidus ferritin (AfFt), empty cage (Archaeoglobus fulgidus) (UniProt O29424)
Assay: UV-vis spectra; AfFt@ samples (AfFt mixed with APEX2-GFP+ at 1:3 under 300 mM NaCl); cargo per cage calculated from the spectra

stoichiometry N (cargo molecules per cage): 1.45
Substance: Engineered Ascorbate Peroxidase 2-GFP+36 fusion protein (APEX2-GFP+) (enzyme)

From paper PMC12590944
